Experimental findings from publication PMC10397247 are described below.

Test [1] concerns the target T1, P3.
T1 chain: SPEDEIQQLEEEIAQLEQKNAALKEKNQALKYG
Briefly: two-hybrid library CC1.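 Also: natural log of median RNA to DNA barcode read ratio; higher means stronger binding.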

In test [2] the target is T2, P3mS.
T2 chain: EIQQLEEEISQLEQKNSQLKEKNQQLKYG
The experiment in a line: two-hybrid library CC1.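 Also: natural log of median RNA to DNA barcode read ratio; higher means stronger binding.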 Particulars: mean of both orientations.

Test [3] deals with T3, P4.
T3 chain: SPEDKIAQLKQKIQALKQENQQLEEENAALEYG
Briefly: two-hybrid library CC1.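 Also: natural log of median RNA to DNA barcode read ratio; higher means stronger binding.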 Particulars: mean of both orientations.

Test [4] concerns the target T4, P4mS.
T4 chain: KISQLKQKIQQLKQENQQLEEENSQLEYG
Briefly: two-hybrid library CC1.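 Also: natural log of median RNA to DNA barcode read ratio; higher means stronger binding.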 Particulars: mean of both orientations.

Test [5] deals with T5, P5SC1.
T5 chain: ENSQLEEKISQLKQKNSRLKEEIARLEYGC
The experiment in a line: two-hybrid library CC1.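 Also: natural log of median RNA to DNA barcode read ratio; higher means stronger binding.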 Particulars: mean of both orientations.

The target of test [6] is T6, P5SC2.
T6 chain: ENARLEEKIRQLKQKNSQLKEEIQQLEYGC
Briefly: two-hybrid library CC1.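 Also: natural log of median RNA to DNA barcode read ratio; higher means stronger binding.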 The settings on record: mean of both orientations.

Test [7] deals with T7, P5.
T7 chain: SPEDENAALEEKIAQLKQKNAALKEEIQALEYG
The experiment in a line: two-hybrid library CC1. The settings on record: mean of both orientations.

The target of test [8] is T8, P5mS.
T8 chain: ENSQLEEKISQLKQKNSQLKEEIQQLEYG
The experiment in a line: two-hybrid library CC1. The settings on record: mean of both orientations.

Test [9] concerns the target T9, P6SC1.
T9 chain: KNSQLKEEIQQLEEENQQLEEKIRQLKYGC
Briefly: two-hybrid library CC1. Particulars: mean of both orientations.

Test [10] concerns the target T10, P6SC2.
T10 chain: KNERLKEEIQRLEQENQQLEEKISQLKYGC
Briefly: two-hybrid library CC1. The settings on record: mean of both orientations.

Test [11] addresses T11, P6.
T11 chain: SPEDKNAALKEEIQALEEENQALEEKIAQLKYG
The experiment in a line: two-hybrid library CC1. The settings on record: mean of both orientations.

The target in test [12] is T12, P6mS.
T12 chain: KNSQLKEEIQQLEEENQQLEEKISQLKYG
The experiment in a line: two-hybrid library CC1. Particulars: mean of both orientations.

Test [13] addresses T13, P7.
T13 chain: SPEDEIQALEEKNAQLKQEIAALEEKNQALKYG
The experiment in a line: two-hybrid library CC1. The settings on record: mean of both orientations.

Test [14] addresses T14, P7mS.
T14 chain: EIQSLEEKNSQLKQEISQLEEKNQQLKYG
The experiment in a line: two-hybrid library CC1. Particulars: mean of both orientations.

Test [15] deals with T15, P8.
T15 chain: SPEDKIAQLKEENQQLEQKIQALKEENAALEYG
The experiment in a line: two-hybrid library CC1. Particulars: mean of both orientations.

The target of test [16] is T16, P8mS.
T16 chain: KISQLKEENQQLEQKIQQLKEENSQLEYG
The experiment in a line: two-hybrid library CC1. The settings on record: mean of both orientations.

Test [17] concerns the target T17, P9.
T17 chain: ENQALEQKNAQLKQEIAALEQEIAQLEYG
Briefly: two-hybrid library CC1. Particulars: mean of both orientations.

The target of test [18] is T18, O11-bN.
T18 chain: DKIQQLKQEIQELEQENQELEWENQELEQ
Briefly: two-hybrid library CCNG1.

Test [19] has as its target T19, O12-bN.
T19 chain: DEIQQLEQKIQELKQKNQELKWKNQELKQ
Briefly: two-hybrid library CCNG1.

Test [20] addresses T20, O13-bN.
T20 chain: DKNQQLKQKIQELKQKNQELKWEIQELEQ
The experiment in a line: two-hybrid library CCNG1.

For test [21], the target named is T21, O14-bN.
T21 chain: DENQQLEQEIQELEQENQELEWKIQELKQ
Briefly: two-hybrid library CCNG1.

In test [22] the target is T22, O15-bN.
T22 chain: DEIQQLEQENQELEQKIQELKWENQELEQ
The experiment in a line: two-hybrid library CCNG1.

In test [23] the target is T23, O16-bN.
T23 chain: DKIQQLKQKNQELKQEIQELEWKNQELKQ
The experiment in a line: two-hybrid library CCNG1.

The target of test [24] is T24, O2-bN.
T24 chain: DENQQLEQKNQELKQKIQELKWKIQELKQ
The experiment in a line: two-hybrid library CCNG1.

The target in test [25] is T25, O3-bN.
T25 chain: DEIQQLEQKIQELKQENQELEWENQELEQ
The experiment in a line: two-hybrid library CCNG1.

Test [26] deals with T26, O4-bN.
T26 chain: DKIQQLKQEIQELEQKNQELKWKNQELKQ
Briefly: two-hybrid library CCNG1.

For test [27], the target named is T27, O5-bN.
T27 chain: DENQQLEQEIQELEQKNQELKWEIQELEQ
The experiment in a line: two-hybrid library CCNG1.

For test [28], the target named is T28, O6-bN.
T28 chain: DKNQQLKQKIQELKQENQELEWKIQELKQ
Briefly: two-hybrid library CCNG1.

In test [29] the target is T29, O7-bN.
T29 chain: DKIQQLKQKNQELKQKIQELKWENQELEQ
Briefly: two-hybrid library CCNG1.

The target of test [30] is T30, O8-bN.
T30 chain: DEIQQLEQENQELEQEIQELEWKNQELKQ
Briefly: two-hybrid library CCNG1.

Test [31] has as its target T31, O9-bN.
T31 chain: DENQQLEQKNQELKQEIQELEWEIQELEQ
Briefly: two-hybrid library CCNG1.

Test [32] has as its target T32, P1bHq.
T32 chain: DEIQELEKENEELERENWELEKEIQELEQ
The experiment in a line: two-hybrid library CCNG1.

Test [33] deals with T33, P2bHq.
T33 chain: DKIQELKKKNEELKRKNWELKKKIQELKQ
Briefly: two-hybrid library CCNG1.

Test [34] has as its target T34, P3bHq.
T34 chain: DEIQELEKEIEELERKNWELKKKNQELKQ
Briefly: two-hybrid library CCNG1.

In test [35] the target is T35, P4bHq.
T35 chain: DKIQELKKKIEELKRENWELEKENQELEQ
Briefly: two-hybrid library CCNG1.

For test [36], the target named is T36, P5bHq.
T36 chain: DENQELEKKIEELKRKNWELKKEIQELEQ
The experiment in a line: two-hybrid library CCNG1.

For test [37], the target named is T37, P6bHq.
T37 chain: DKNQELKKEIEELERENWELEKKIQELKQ
Briefly: two-hybrid library CCNG1.

Test [38] deals with T38, P7bHq.
T38 chain: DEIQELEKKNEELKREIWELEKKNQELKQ
Briefly: two-hybrid library CCNG1.

Test [39] has as its target T39, P8bHq.
T39 chain: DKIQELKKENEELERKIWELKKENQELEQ
The experiment in a line: two-hybrid library CCNG1.

The target in test [40] is T40, P9bHq.
T40 chain: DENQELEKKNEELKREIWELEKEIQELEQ
Briefly: two-hybrid library CCNG1.

For the molecule SPEDEIQQLEEEIAQLEQKNAALKEKNQALKYG [P3], the interaction score in test [1] is -2.65; in test [2], -2.89; in test [3], 0.154; in test [4] it was 0.336; in [5], -2.58; in test [6], -2.4. The interaction score in [7] is -2.66; in test [8], -2.66; in test [9], -2.57; in test [10], -2.04; in [11], -2.59; in test [12], -2.79. Further, the interaction score in [13] was -2.61; in test [14] it was -2.58; in test [15], -2.6; in test [16], -2.7; in test [17] it was -2.09.
In the case of DKIQQLKQEIQELEQENQELEWENQELEQ [O11-bN], the interaction score in test [18] was -0.191; in [19], 0.971; in test [20], -0.808; in test [21] it was -0.639; in test [22], -0.577; in test [23] it was -1.91. Moreover, the interaction score is -0.23 in [24]; -0.437 in test [25]; 0.401 in test [26]; -1.06 in test [27]; -0.927 in test [28]; -1.3 in [29]. Also, the figures for the interaction score in [30] and in test [31] were -1.26 and -0.813, respectively.
DEIQELEKENEELERENWELEKEIQELEQ [P1bHq]: the interaction score is -0.606 in test [32]; 1.87 in [33]; -1.03 in test [34]; -0.52 in [35]; -0.887 in [36]; -0.273 in test [37]. Besides, the values for the interaction score in [38], in test [39] and in [40] were -0.288, -0.272 and -1.78, respectively.
